{
  "source": "patent US20240366788A1",
  "about": "(DUKE UNIVERSITY, published 2024)",
  "biological_target": "T1, H2-Q7 (QA2), GPI-anchored MHC class Ib molecule on murine T cells (mouse, UniProt P14429 22-334; P01887 21-119)",
  "T1 construct": "whole, on cells; also called H2-Q7/MHC-I",
  "T1 sequence (MHC heavy, looked up)": "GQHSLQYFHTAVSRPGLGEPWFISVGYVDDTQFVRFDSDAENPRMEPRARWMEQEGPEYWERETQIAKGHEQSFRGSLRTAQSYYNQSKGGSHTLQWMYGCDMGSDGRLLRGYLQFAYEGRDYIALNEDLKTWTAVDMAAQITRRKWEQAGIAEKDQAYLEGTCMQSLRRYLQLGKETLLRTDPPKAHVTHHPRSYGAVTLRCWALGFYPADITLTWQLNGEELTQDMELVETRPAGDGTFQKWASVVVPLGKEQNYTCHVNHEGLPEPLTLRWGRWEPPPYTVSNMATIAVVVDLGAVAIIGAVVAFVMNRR",
  "T1 sequence (b2m, looked up)": "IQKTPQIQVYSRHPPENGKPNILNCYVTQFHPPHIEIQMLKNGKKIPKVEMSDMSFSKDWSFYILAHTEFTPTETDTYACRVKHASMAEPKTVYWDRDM",
  "experiment": "qPCR of surface-bound viral genomes on C57BL/6J T cells, 1 hr at 4 C, with against without PI-PLC pre-treatment",
  "data": [
    {"binder": "Ark313 AAV capsid (AAV6 capsid variant with 454-VVNPAEG-460) (other) MAADGYLPDWLEDNLSEGIREWWDLKPGAPKPKANQQKQDDGRGLVLPGYKYLGPFNGLDKGEPVNAADAAALEHDKAYDQQLKAGDNPYLRYNHADAEFQERLQEDTSFGGNLGRAVFQAKKRVLEPFGLVEEGAKTAPGKKRPVEQSPQEPDSSSGIGKTGQQPAKKRLNFGQTGDSESVPDPQPLGEPPATPAAVGPTTMASGGGAPMADNNEGADGVGNASGNWHCDSTWLGDRVITTSTRTWALPTYNNHLYKQISSASTGASNDNHYFGYSTPWGYFDFNRFHCHFSPRDWQRLINNNWGFRPKRLNFKLFNIQVKEVTTNDGVTTIANNLTSTVQVFSDSEYQLPYVLGSAHQGCLPPFPADVFMIPQYGYLTLNNGSQAVGRSSFYCLEYFPSQMLRTGNNFTFSYTFEDVPFHSSYAHSQSLDRLMNPLIDQYLYYLNRTQNQSVVNPAEGLLFSRGSPAGMSVQPKNWLPGPCYRQQRVSKTKTDNNNSNFTWTGASKYNLNGRESIINPGTAMASHKDDKDKFFPMSGVMIFGKESAGASNTALDNVMITDEEEIKATNPVATERFGTVAVNLQSSSTDPATGDVHVMGALPGMVWQDRDVYLQGPIWAKIPHTDGHFHPSPLMGGFGLKHPPPQILIKNTPVPANPPAEFSATKFASFITQYSTGQVSVEIEWELQKENSKRWNPEVQYTSNYAKSANVDFTVDNNGLYTEPRPIGTRYLTRPL", "values": [
      {"measurement": "fold reduction in bound virus per cell after PI-PLC treatment (GPI cleavage)", "result": "~10", "unit": "fold"}
    ]}
  ]
}
